The first experiment deals with T1, peptide-receptive MHC class I molecule (HLA-A*02:01 with beta-2-microglobulin) of the UV-ligand exchange assay (human). Put plainly: UV-ligand exchange + anti-b2m ELISA; peptide exchange yield grade (+++ = 50%-75%). An excerpt: (§1) Candidate peptides for T cell based therapies according to the present invention were further tested for their MHC binding capacity (affinity). The individual peptide-MHC complexes were produced by UV-ligand exchange, where a UV-sensitive peptide is cleaved upon UV-irradiation, and exchanged with the peptide of interest as analyzed. Only peptide candidates that can effectively bind and stabilize the peptide-receptive MHC molecules prevent dissociation of the MHC complexes. To determine the yield of the exchange reaction, an ELISA was performed based on the detection of the light chain (β2m) of stabilized MHC complexes. The assay was performed as generally described in Rodenko et al. (Rodenko et al., 2006).
(§2) 96 well MAXISorp plates (NUNC) were coated over night with 2 ug/ml streptavidin in PBS at room temperature, washed 4× and blocked for 1 h at 37° C. in 2% BSA containing blocking buffer. Refolded HLA-A*02:01/MLA-001 monomers served as standards, covering the range of 15-500 ng/ml. Peptide-MHC monomers of the UV-exchange reaction were diluted 100 fold in blocking buffer. Samples were incubated for 1 h at 37° C., washed four times, incubated with 2 ug/ml HRP conjugated anti-β2m for 1 h at 37° C., washed again and detected with TMB solution that is stopped with […]. Absorption was measured at 450 nm. Candidate peptides that show a high exchange yield (preferably higher than 50%, most preferred higher than 75%) are generally preferred for a generation and production of antibodies or fragments thereof, and/or T cell receptors or fragments thereof, as they show sufficient avidity to the MHC molecules and prevent dissociation of the MHC complexes.
(An ELISA detects its analyte on a solid surface through an enzyme-linked reagent.)
For FLQEYLDAI (synthetic peptide), the peptide exchange yield lay within 50 to 75%. Turning to GLAAFKAFL (synthetic peptide), the peptide exchange yield was 50 to 75%. Same read-out and setting: in the case of ALLSGLREA (synthetic peptide) it was 50 to 75%. On the same count and under the same terms, with FLYKIIDEL (synthetic peptide) the figure was 50 to 75%; with FLLDGSEGV (synthetic peptide), 50 to 75%; with FLVSNMLLAEA (synthetic peptide), 50 to 75%.

For the molecule LLVDDSFLHTV (synthetic peptide), the peptide exchange yield was 50 to 75%.

Regarding GLLDYATGAIGSV (synthetic peptide), the peptide exchange yield is 50 to 75%. The same measure, in the same setting: in the case of ALAAILTRL (synthetic peptide) it was 50 to 75%; in that of ALLTFMEQV (synthetic peptide), 50 to 75%; in that of KMFFLIDKV (synthetic peptide), 50 to 75%.

In the case of NLVEKTPALV (synthetic peptide), the peptide exchange yield was 50 to 75%. On the same count and under the same terms, in the case of FVSEIVDTV (synthetic peptide) it was 50 to 75%.

In another experiment the target is T1, peptide-receptive MHC class I molecule …. Put plainly: UV-ligand exchange + anti-b2m ELISA; peptide exchange yield grade (+ = <20%).
Description: as §1, §2
Turning to NLKGTFATL (synthetic peptide), the peptide exchange yield is below 20%.

As to SSFGGLGGGSV (synthetic peptide), the peptide exchange yield is below 20%.

For the molecule SLAAAAGKQELA (synthetic peptide), the peptide exchange yield is below 20%.

For another experiment the target is unchanged. The experiment in a line: UV-ligand exchange + anti-b2m ELISA; peptide exchange yield grade (++ = 20%-49%).
Description: as §1, §2
For TLLSNLEEA (synthetic peptide), the peptide exchange yield was 20 to 49%. The same measure, in the same setting: with VLISLKQAPLV (synthetic peptide) the figure was 20 to 49%; with SLQEEHVAVA (synthetic peptide), 20 to 49%; with VMDSGDGVTHTV (synthetic peptide), 20 to 49%. The same measure, in the same setting: with LLAGQTYHV (synthetic peptide) the figure was 20 to 49%; with VVDEGPTGV (synthetic peptide), 20 to 49%. With SVDVSPPKV (synthetic peptide), the peptide exchange yield lay within 20 to 49%. The same measure, in the same setting: in the case of FLAQQESEI (synthetic peptide) it was 20 to 49%; in that of ALTQTGGPHV (synthetic peptide), 20 to 49%; in that of TLDGAAVNQV (synthetic peptide), 20 to 49%. Take VLAKPGVISV (synthetic peptide): the peptide exchange yield was in the range of 20 to 49%. Take SLAAAAGKQEL (synthetic peptide): the peptide exchange yield was in the range of 20 to 49%. On the same count and under the same terms, in the case of APVNVTTEVKSV (synthetic peptide) it was 20 to 49%; in that of GLLEELVTV (synthetic peptide), 20 to 49%; in that of YLYDSETKNA (synthetic peptide), 20 to 49%. Same read-out and setting: in the case of TFAPVNVTTEVKSV (synthetic peptide) it was 20 to 49%; in that of FLVDGSSAL (synthetic peptide), 20 to 49%. Still for that read-out and setting: in the case of YLEEDVYQL (synthetic peptide) it was 20 to 49%; in that of RLAGDGVGAV (synthetic peptide), 20 to 49%. Turning to SLKEEVGEEAIV (synthetic peptide), the peptide exchange yield was 20 to 49%. Same read-out and setting: in the case of AQQESEIAGI (synthetic peptide) it was 20 to 49%; in that of VLLSEIEVA (synthetic peptide), 20 to 49%. Still for that read-out and setting: with SLANNVTSV (synthetic peptide) the figure was 20 to 49%; with HLMDQPLSV (synthetic peptide), 20 to 49%; with SLDSRLELA (synthetic peptide), 20 to 49%. Same read-out and setting: in the case of SLKEEVGEEAI (synthetic peptide) it was 20 to 49%; in that of SLSAFTLFL (synthetic peptide), 20 to 49%; in that of YLDAMMNEA (synthetic peptide), 20 to 49%.

In the case of YLQGQRLDNV (synthetic peptide), the peptide exchange yield fell in the range of 20 to 49%. Still for that read-out and setting: in the case of KLFNLSKEDDV (synthetic peptide) it was 20 to 49%.

As for ALMLQGVDL (synthetic peptide), the peptide exchange yield was in the range of 20 to 49%. Same read-out and setting: with RMVEEIGVEL (synthetic peptide) the figure was 20 to 49%.

On to GLLKKINSV (synthetic peptide), for which the peptide exchange yield fell in the range of 20 to 49%. The same measure, in the same setting: in the case of IVDDLTINL (synthetic peptide) it was 20 to 49%; in that of RLDQRVPQI (synthetic peptide), 20 to 49%; in that of SLLDDELMSL (synthetic peptide), 20 to 49%. For FILDSAETTTL (synthetic peptide), the peptide exchange yield fell in the range of 20 to 49%.

For FLKSGDAAIV (synthetic peptide), the peptide exchange yield lay in the range of 20 to 49%. The same measure, in the same setting: in the case of FLFDGSANLV (synthetic peptide) it was 20 to 49%; in that of YLQGQRLDNVV (synthetic peptide), 20 to 49%. Same read-out and setting: in the case of KLVDKSTEL (synthetic peptide) it was 20 to 49%. For VLLDKIKNLQV (synthetic peptide), the peptide exchange yield lay in the range of 20 to 49%.

Source of the values: patent publication US20170165335A1 (IMMATICS BIOTECHNOLOGIES, published 2017).
